Results as given in patent US20250066499A1 (SUNSHINE GUOJIAN PHARMACEUTICAL SHANGHAI, published 2025).
Numbering of substitutions follows the chain as printed.

Key:
CD73-ND-P139A = target: T1, CD73-ND-P139A (human, UniProt P21589 27-317); assay: ELISA, high plateau value (OD 450 nm)
T1 construct: Alanine mutant of CD73-ND
T1 sequence: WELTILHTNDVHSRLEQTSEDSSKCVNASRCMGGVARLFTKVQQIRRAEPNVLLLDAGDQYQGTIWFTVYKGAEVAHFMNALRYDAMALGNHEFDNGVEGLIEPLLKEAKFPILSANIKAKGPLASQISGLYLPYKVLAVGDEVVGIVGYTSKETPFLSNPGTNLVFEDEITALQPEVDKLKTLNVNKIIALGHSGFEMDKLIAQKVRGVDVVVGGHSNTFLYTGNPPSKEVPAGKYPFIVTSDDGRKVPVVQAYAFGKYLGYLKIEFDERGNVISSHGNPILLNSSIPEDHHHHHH
Description: (§1) The ELISA plates were coated with SA protein diluted to 1.5 μg/mL in coating buffer (50 mM carbonate coating buffer, pH 9.6) and incubated overnight at 4° C. The supernatant was discarded, and the plates were washed three times with PBST. Then, 5% skimmed milk powder prepared with PBS was added for blocking and the plates were incubated for 2 h at 37° C. After washing the plates once with PBST, CD73-biotin protein (prepared by biotinylating CD73-His protein according to the EZ-Link NHS-Biotin Reagent instructions) was diluted to 0.5 μg/mL and added at 100 μL/well for incubation at room temperature for 1 h. The plates were washed three times with PBST, and the prepared murine-derived monoclonal antibodies against human CD73 were serially diluted with 1% BSA buffer prepared with PBST and added to the ELISA plates at 100 μl/well. The plates were incubated at 37° C. for 1 h. After washing the plates three times with PBST, HRP-labeled goat anti-mouse IgG secondary antibody was added and the plates were incubated for 30 min at 37° C. After washing the plates three times with PBST, the residual droplets were patted dry on absorbent paper as much as possible. Then, 100 μl of TMB color developing solution was added to each well, and the plates were incubated in the dark at room temperature for 5 min for color development. Subsequently, 50 μl of 2M H₂SO₄ stop solution was added to each well to terminate the substrate reaction. The OD values were read at 450 nm using a multimode microplate reader to analyze the binding ability of the tested antibodies to the target antigen human CD73-His.
(§2) Referring to the experimental method in Example 3, the affinity of 48A11-HuV33 for various mutant proteins of CD73-ND was determined. The SA protein was diluted to 1 μg/mL for coating the ELISA plates, and the biotinylated CD73 protein (CD73-biotin) was used at a concentration of 0.1 μg/mL.

CD73-ND-his [1] = target: T2, CD73-ND-his (human, UniProt P21589 27-317); assay: ELISA, high plateau value (OD 450 nm)
T2 construct: Biotinylated and captured on streptavidin in the ELISA
T2 sequence: T1 sequence with A139P
Description: as §1, §2

CD73-ND-V186A [2] = target: T3, CD73-ND-V186A (human, UniProt P21589 27-317); assay: ELISA, high plateau value (OD 450 nm)
T3 construct: Alanine mutant of CD73-ND
T3 sequence: T1 sequence with A139P, V186A
Description: as §1, §2

CD73-ND-N187A [3] = target: T4, CD73-ND-N187A (human, UniProt P21589 27-317); assay: ELISA, high plateau value (OD 450 nm)
T4 construct: Alanine mutant of CD73-ND
T4 sequence: T1 sequence with A139P, N187A
Description: as §1, §2

CD73-ND-his [4] = target: T2, CD73-ND-his; assay: ELISA; decline multiple of Top against CD73-ND
Description: as §1, §2

CD73-ND-V186A [5] = target: T3, CD73-ND-V186A; assay: ELISA; decline multiple of Top against CD73-ND
Description: as §1, §2

CD73-ND-N187A [6] = target: T4, CD73-ND-N187A; assay: ELISA; decline multiple of Top against CD73-ND
Description: as §1, §2

B1: 48A11-HuV33 (antibody, human IgG4, V domains shown)
VH: QVQLVQSGAEVKKPGASVKVSCKASGYTFTSYWMHWVRQAPGQGLEWIGEINPSIGRTNYNEKFKSRVTLTRDTSTSTAYMELSSLRSEDTAVYYCARRVYGTMDYWGQGTLVTVSS
VL: DIQMTQSPSSLSASVGDRVTITCKASQDINSYLSWFQQKPGKSPKLLIYRANIWVDGVPSRFSGSGSGQDYTFTISSLQPEDIATYYCLQYDELYTFGQGTKVEIK
notes: Humanized
- Top (CD73-ND-P139A): 0.871
- Top (CD73-ND-his [1]): 1.94
- Top (CD73-ND-V186A [2]): 1.62
- Top (CD73-ND-N187A [3]): 1.77
- Ratio(Top) (CD73-ND-his [4]): 1 fold
- Ratio(Top) (CD73-ND-V186A [5]): 1.2 fold
- Ratio(Top) (CD73-ND-N187A [6]): 1.1 fold
